Positions count from the first letter of the chain named. Names and notes keep the numbering of the source.
T1: EsCas13d, nuclease-dead (Eubacterium siraeum, UniProt B0MS50, R295A;H300A;R849A;H854A)
T1 sequence: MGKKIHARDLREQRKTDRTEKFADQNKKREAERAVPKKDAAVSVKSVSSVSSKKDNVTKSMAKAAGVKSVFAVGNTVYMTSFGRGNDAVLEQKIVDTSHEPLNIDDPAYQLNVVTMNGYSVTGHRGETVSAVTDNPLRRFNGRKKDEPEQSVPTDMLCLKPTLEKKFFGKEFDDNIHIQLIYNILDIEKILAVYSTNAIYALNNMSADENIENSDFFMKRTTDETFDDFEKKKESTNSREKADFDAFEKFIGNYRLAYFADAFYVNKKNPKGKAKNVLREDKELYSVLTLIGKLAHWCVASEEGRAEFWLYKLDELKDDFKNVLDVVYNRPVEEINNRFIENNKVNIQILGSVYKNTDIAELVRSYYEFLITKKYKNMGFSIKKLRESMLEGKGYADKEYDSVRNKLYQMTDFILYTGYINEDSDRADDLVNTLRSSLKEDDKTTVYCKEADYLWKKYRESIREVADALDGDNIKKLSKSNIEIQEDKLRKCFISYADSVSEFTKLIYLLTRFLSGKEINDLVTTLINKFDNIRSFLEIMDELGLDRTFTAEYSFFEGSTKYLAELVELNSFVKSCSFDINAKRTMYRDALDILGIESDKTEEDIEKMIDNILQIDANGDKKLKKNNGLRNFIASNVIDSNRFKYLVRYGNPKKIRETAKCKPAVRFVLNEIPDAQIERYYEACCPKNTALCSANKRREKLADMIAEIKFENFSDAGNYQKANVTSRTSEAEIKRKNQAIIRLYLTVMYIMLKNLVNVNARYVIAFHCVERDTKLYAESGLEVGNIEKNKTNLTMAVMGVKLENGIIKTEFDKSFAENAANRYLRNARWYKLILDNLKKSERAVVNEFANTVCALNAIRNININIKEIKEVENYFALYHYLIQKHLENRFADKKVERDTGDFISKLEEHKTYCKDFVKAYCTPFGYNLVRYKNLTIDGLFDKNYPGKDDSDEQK

B1: target 1 insC 3' of 15,insC 3' of 13 (mixed)
RNA 1: CACCCGUGCAAAAAUGCAGGGGUCUAAAACUGAGCGGAUAACCUCUCUAUGG
RNA 2: GGGAAUGGAUCCACAUCUACGAAUUCGUACCAUAGAGCAGCGUUAUCCGCUCACCGAGAUCGGAAGAGCACACGU
B2: target 1 insU 3' of 6,insG 3' of 2 (mixed)
RNA 1: B1 RNA 1
RNA 2: GGGAAUGGAUCCACAUCUACGAAUUCGUACCAUAGAGAGGUUAUCCUGCUCGACCGAGAUCGGAAGAGCACACGU
B3: target 1 C2G,C21U (mixed)
RNA 1: B1 RNA 1
RNA 2: GGGAAUGGAUCCACAUCUACGAAUUCGUACUAUAGAGAGGUUAUCCGCUGACCGAGAUCGGAAGAGCACACGU
B4: target 1 insA 3' of 13,insC 3' of 13 (mixed)
RNA 1: B1 RNA 1
RNA 2: B1 RNA 2 with C38A, A39G, G40A
B5: target 1 insU 3' of 15,insU 3' of 4 (mixed)
RNA 1: B1 RNA 1
RNA 2: B2 RNA 2 with A38U, G39A, U41G, A43U, U44A, C45U, U47C, C51U, G52C
B6: target 1 insU 3' of 4,insG 3' of 1 (mixed)
RNA 1: B1 RNA 1
RNA 2: B2 RNA 2 with U47G, G48C, C49U, G52A, A53G
B7: target 1 insA 3' of 3,insA 3' of 2 (mixed)
RNA 1: B1 RNA 1
RNA 2: B2 RNA 2 with U47G, G48C, C49U, U50A, G52A
B8: target 1 U11C,U19C (mixed)
RNA 1: B1 RNA 1
RNA 2: B3 RNA 2 with U31C, U33C, U41C, G50C
B9: target 1 insA 3' of 12,insG 3' of 1 (mixed)
RNA 1: B1 RNA 1
RNA 2: B2 RNA 2 with U41A, A43U, U44A, C45U, U47C, G52A, A53G
B10: target 1 insA 3' of 12,insC 3' of 1 (mixed)
RNA 1: B1 RNA 1
RNA 2: B2 RNA 2 with U41A, A43U, U44A, C45U, U47C, G52A, A53C
B11: target 1 insA 3' of 12,insA 3' of 2 (mixed)
RNA 1: B1 RNA 1
RNA 2: B2 RNA 2 with U41A, A43U, U44A, C45U, U47C, G52A
B12: target 1 insG 3' of 7,insU 3' of 7 (mixed)
RNA 1: B1 RNA 1
RNA 2: B2 RNA 2 with C46G, G48C, C49G, U50C, C51U, G52C
B13: target 1 insC 3' of 18,insG 3' of 8 (mixed)
RNA 1: B1 RNA 1
RNA 2: B1 RNA 2 with G35C, A36G, G37A, C38G, C41G, G42U, U44A, A45U, U46G
B14: target 1 U3G,G13A (mixed)
RNA 1: B1 RNA 1
RNA 2: B3 RNA 2 with U31C, G39A, U49G, G50C
B15: target 1 insG 3' of 22,insA 3' of 10 (mixed)
RNA 1: B1 RNA 1
RNA 2: GGGAAUGGAUCCACAUCUACGAAUUCGUACGCAUAGAGAGGUUAAUCCGCUCACCGAGAUCGGAAGAGCACACGU
B16: target 1 G5C,A20U (mixed)
RNA 1: B1 RNA 1
RNA 2: B3 RNA 2 with U31C, A32U, G47C, G50C
B17: target 1 C6A,A14G (mixed)
RNA 1: B1 RNA 1
RNA 2: B3 RNA 2 with U31C, A38G, C46A, G50C
B18: target 1 C2A,C22G (mixed)
RNA 1: B1 RNA 1
RNA 2: B3 RNA 2 with C30G, U31C, G50A
B19: target 1 insU 3' of 9,insA 3' of 5 (mixed)
RNA 1: B1 RNA 1
RNA 2: B2 RNA 2 with C45U, U47C, C49A, U50C, C51U, G52C
B20: target 1 A18C,C22U (mixed)
RNA 1: B1 RNA 1
RNA 2: B3 RNA 2 with C30U, U31C, A34C, G50C
B21: target 1 insU 3' of 18,insU 3' of 14 (mixed)
RNA 1: B1 RNA 1
RNA 2: B1 RNA 2 with G35U, A36G, G37A, C38G, G40U, C41G
B22: target 1 insU 3' of 13,insA 3' of 4 (mixed)
RNA 1: B1 RNA 1
RNA 2: B2 RNA 2 with G40U, U41G, A43U, U44A, C45U, U47C, U50A, C51U, G52C
B23: target 1 U19A,C22U (mixed)
RNA 1: B1 RNA 1
RNA 2: B3 RNA 2 with C30U, U31C, U33A, G50C
B24: target 1 insG 3' of 10,insA 3' of 5 (mixed)
RNA 1: B1 RNA 1
RNA 2: B2 RNA 2 with A43G, U44A, C45U, U47C, C49A, U50C, C51U, G52C
B25: target 1 C2G,G12U (mixed)
RNA 1: B1 RNA 1
RNA 2: B3 RNA 2 with U31C, G40U
B26: target 1 insU 3' of 13,insG 3' of 6 (mixed)
RNA 1: B1 RNA 1
RNA 2: B1 RNA 2 with C38A, A39G, G40U, C41G, G42U, U44A, A45U, U46C, C48G
B27: target 1 insU 3' of 12,insG 3' of 11 (mixed)
RNA 1: B1 RNA 1
RNA 2: B1 RNA 2 with C38A, A39G, C41U, G42U, U43G
B28: target 1 insU 3' of 4,insA 3' of 2 (mixed)
RNA 1: B1 RNA 1
RNA 2: B2 RNA 2 with U47G, G48C, C49U, G52A
B29: target 1 U10A,A20U (mixed)
RNA 1: B1 RNA 1
RNA 2: B3 RNA 2 with U31C, A32U, U42A, G50C
B30: target 1 A9C,U10A (mixed)
RNA 1: B1 RNA 1
RNA 2: B3 RNA 2 with U31C, U42A, A43C, G50C
B31: target 1 insU 3' of 15,insA 3' of 6 (mixed)
RNA 1: B1 RNA 1
RNA 2: B1 RNA 2 with C38U, C41G, G42U, U44A, A45U, U46C, C48A
B32: target 1 del15 (mixed)
RNA 1: B1 RNA 1
RNA 2: GGGAAUGGAUCCACAUCUACGAAUUCGUACCAUAGAAGGUUAUCCGCUCACCGAGAUCGGAAGAGCACACGU
B33: target 1 U3C,C4A (mixed)
RNA 1: B1 RNA 1
RNA 2: B3 RNA 2 with U31C, C48A, U49C, G50C

biological target: T1, EsCas13d, nuclease-dead; assay: crRNA (strand 1, pre-loaded); Mg2+; 40 mM Tris-HCl pH 7.5, 150 mM NaCl, 6 mM MgCl2, 1 mM DTT, 0.1% Tween-20, 0.2 mg/ml BSA; 25 C; 10 min per concentration, then washed; details: tags: His6-TwinStrep-SUMO cleaved; N-terminal SNAP kept (SNAP-Surface 488); label: 3' end held by stalled T7 RNA polymerase

Binder	Kd [nM]
B1	34 ± 4
B2	15.3 ± 1
B3	11.7 ± 1.6
B4	23 ± 5
B5	9.6 ± 0.6
B6	6.8 ± 0.4
B7	7.1 ± 0.4
B8	~80
B9	28.9 ± 3.1
B10	27.4 ± 2.6
B11	34.2 ± 3.1
B12	9.26 ± 0.34
B13	53.4 ± 3.3
B14	5.4 ± 0.8
B15	25 ± 1.5
B16	63 ± 12
B17	12.6 ± 0.9

Binder	Kd [nM]
B18	~80
B19	6.6 ± 0.8
B20	59 ± 7
B21	73 ± 12
B22	13.5 ± 1.5
B23	70 ± 19
B24	30.5 ± 3.4
B25	7.14 ± 0.3
B26	25 ± 5
B27	10.8 ± 0.7
B28	7.7 ± 0.6
B29	87 ± 13
B30	13.9 ± 0.8
B31	21.4 ± 2
B32	8.96 ± 0.33
B33	12.1 ± 1.2

— PMC10786891, “Massively parallel profiling of RNA-targeting CRISPR-Cas13d”
